Here are results for ten molecules from patent US12383631B2, “Immune antigen specific IL-18 immunocytokines and uses thereof” (Bright Peak Therapeutics AG, priority 2022, dated 2025).

Substitutions are numbered along the chain they refer to. In names and notes the source's numbering stands.

T1: human IL-18 binding protein isoform a (IL-18BPa) (Homo sapiens, UniProt O95998)
T1 sequence (O95998 31-194): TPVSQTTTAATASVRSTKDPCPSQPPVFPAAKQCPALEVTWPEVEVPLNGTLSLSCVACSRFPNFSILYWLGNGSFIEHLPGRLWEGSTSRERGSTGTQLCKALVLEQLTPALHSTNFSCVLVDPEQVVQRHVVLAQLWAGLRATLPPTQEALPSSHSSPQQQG

T2: human IL-18BP (Homo sapiens, UniProt O95998)
T2 sequence (O95998 31-194): T1 sequence (O95998 31-194)

B1: SEQ ID NO: 30: IL-18 polypeptide: E6K, V11I, C38A, K53A, T63A, C76A, C127A (protein)
chain: YFGKLKSKLSIIRNLNDQVLFIDQGNRPLFEDMTDSDARDNAPRTIFIISMYADSQPRGMAVAISVKCEKISTLSAENKIISFKEMNPPDNIKDTKSDIIFFQRSVPGHDNKMQFESSSYEGYFLAAEKERDLFKLILKKEDELGDRSIMFTVQNED
B2: SEQ ID NO: 72: IL-18 polypeptide: N-terminal 4xG, E6K, V11I, C38A, K53A, T63A, C76A, C127A (protein)
chain: GGGGYFGKLKSKLSIIRNLNDQVLFIDQGNRPLFEDMTDSDARDNAPRTIFIISMYADSQPRGMAVAISVKCEKISTLSAENKIISFKEMNPPDNIKDTKSDIIFFQRSVPGHDNKMQFESSSYEGYFLAAEKERDLFKLILKKEDELGDRSIMFTVQNED
modifications: N-terminal 4xG
notes: IL-18 polypeptide: N-terminal 4xG, E6K, V11I, C38A, K53A, T63A, C76A, C127A
B3: C177: IL-18 polypeptide: E6K, V11I, C38A, I49R, K53A, T63A, C76A, C127A (protein)
chain: B1 chain with I49R
B4: C182: IL-18 polypeptide: E6K, V11I, C38A, K53A, T63A, C76A, C127A, V153Y (protein)
chain: B1 chain with V153Y
B5: C178: IL-18 polypeptide: E6K, V11I, C38A, K53A, T63A, C76A, Q103R, C127A (protein)
chain: B1 chain with Q103R
B6: C179: IL-18 polypeptide: E6K, K8E, V11I, C38A, K53A, T63A, C76A, Q103R, C127A (protein)
chain: B1 chain with K8E, Q103R
B7: SEQ ID NO: 69: IL-18 polypeptide: E6K, V11I, C38A, M51G, K53A, T63A, C76A, C127A (protein)
chain: B1 chain with M51G
B8: C181: IL-18 polypeptide: E6K, V11I, C38A, K53A, T63A, C76A, C127A, V153E (protein)
chain: B1 chain with V153E
B9: SEQ ID NO: 71: IL-18 polypeptide: N-terminal G, E6K, V11I, C38A, K53A, T63A, C76A, C127A (protein)
chain: GYFGKLKSKLSIIRNLNDQVLFIDQGNRPLFEDMTDSDARDNAPRTIFIISMYADSQPRGMAVAISVKCEKISTLSAENKIISFKEMNPPDNIKDTKSDIIFFQRSVPGHDNKMQFESSSYEGYFLAAEKERDLFKLILKKEDELGDRSIMFTVQNED
modifications: N-terminal G
notes: IL-18 polypeptide: N-terminal G, E6K, V11I, C38A, K53A, T63A, C76A, C127A
B10: SEQ ID NO: 70: IL-18 polypeptide: N-terminal G, E6K, V11I, C38A, M51G, K53A, T63A, C76A, C127A (protein)
chain: B9 chain with M52G
modifications: N-terminal G
notes: IL-18 polypeptide: N-terminal G, E6K, V11I, C38A, M51G, K53A, T63A, C76A, C127A

The test system of the first test is PD-1 positive (transduced) KG-1 cells. Put plainly: IFN gamma secretion assay in PD-1 transduced KG-1 cells (Example 11). It counts as cell-based, human. The following applies: ratio of EC50 in PD-1 positive and parental KG-1 cells. As for the experimental part: The KG-1 cell line was used to generate a PD-1 expressing cell line and furthermore, to measure IFNγ release upon incubation with TL-18 variants and corresponding TL-18 immunocytokines.
PD-1 expressing cell line generation: Briefly, KG-1 cells were transduced using lentiviral particles carrying the human PD-1 gene (PDCD1 NM_005018; Origene, CAT #: RC210364L3V) at a MOI (Multiplicity of Infection) of 30. Spinfection was performed at 1260 g during 90 min at 37° C. in the presence of 5 μg/ml of Polybrene and 10 mM of HEPES in complete culture media (RPMI, 10% FBS, 1% L-Glutamine). […]
IFNγ release was assessed in PD-1 positive (transduced) KG-1 cells, as well as in the parental PD-1 negative cells. […] The lowest concentration assessed was 0.05 fM. After incubation, IFNγ release was measured using the LEGENDplex custom human mix and match KIT (Biolegend LEGENDplex™ Human IFN-γ Capture Bead B5, 13×#740942, LEGENDplex™ P 1 Essential Immune Response Panel Detection Abs, #740931, LEGENDplex™ Buffer Set A #740368). […] Fluorescence measurements were done with a Quanteon Flow Cytometer from Acea Biosciences. For analysis, MFI values (median fluorescence intensity) were exported and plotted against concentrations used. The EC50 values (half maximal effective concentration) were calculated based on a variable slope and four parameter analysis using GraphPad PRISM software version 9.
Consider B1, for which the “PD-1^pos/PD-1^neg EC50 ratio” value amounted to 1.336.

The target of a further test is T1, human IL-18 binding protein isoform a (IL-18BPa). Kind of test: Cellular IL-18 Binding protein resistance assay in NK-92 cells (Example 13). It counts as cell-based. The conditions noted are these: NK92 cells, IL-18 analyte 1 nM final, IL-18BPa titrated, 1 ng/ml IL-12; read-out: IC50 IL-18BP-mediated inhibition of IFNγ secretion. As for the experimental part: The NK cell line NK-92 derived from a patient with lymphoma (ATCC, Cat #CRL-2407) was cultured in aMEM medium supplemented with 20% FCS-Glutamax, 25 μM B-mercaptoEthanol, and 100 IU/ml of recombinant Human Interleukin-2 (TL-2). On the day of experiment, cells were harvested and washed with aMEM medium without IL-2. After counting, cells were seeded at 100 000 cells/well in a 384 well titer plate and incubated at 37° C./5% CO2. Sixteen 2-fold serial dilutions of Fc fused human IL-18 binding protein isoform a (IL-18BPa; R&D systems, Cat #119-BP) were prepared in aMEM medium-1 ng/ml IL-12 containing 2 nM of each IL-18 variants and were added to the NK-92 cells. Final IL-18 analytes concentration was 1 nM and final IL-18BPa concentrations ranged from to 566 nM down to 17 pM.
After 16-20 h incubation at 37° C./5% CO2, 5 μl of supernatant were carefully transferred to a 384 microwells OPTIplate (Perkin Elmer; Cat #6007270) and Interferon-gamma (IFNγ) levels measured using the Human IFNγ AlphaLISA Assay Kit (Perkin Elmer, Cat #AL217C). […] AlphaLisa signal was then measured on an Enspire plate reader (Perkin Elmer) using 680 and 615 nm as excitation and emission wavelengths respectively. Half maximal inhibitory concentration (IC50) was calculated based on a variable slope, four parameter analysis using GraphPad PRISM software.
The IC50 is the concentration at which inhibition is half-maximal. As for B1, the IC50 came to 488 nM.

The target in the next test is T2, human IL-18BP. Kind of test: IL-18BP binding AlphaLISA assay (Example 4 / 17B). The following applies: IL-18 binding protein AlphaLISA. As for the experimental part: A human IL-18BP AlphaLISA Assay Kit is used to determine the binding affinity of each immunocytokine and IL-18 variant for IL-18BP, which detected the presence of free form IL-18BP.
Sixteen three-fold serial dilutions of IL-18 analytes are prepared in aMEM medium supplemented with 20% FCS, Glutamax, and 25 μM β-mercaptoethanol in the presence of 5 ng/mL of His-tagged human IL-18BP. Final IL-18 analytes concentration range from 2778 nM to 0.2 pM.
After 1 hr incubation at room temperature, free IL-18BP levels are measured using a […]. In a 384 well OPTIplate, 5 μL of 5× Anti-IL-18BP acceptor beads are added to 7.5 μL of an IL-18/IL-18BP mix. After 30 min incubation at room temperature with shaking, 5 μL of biotinylated Anti-IL-18BP antibodies are added to each well. The plate is incubated further for 1 hr at room temperature. Under subdued light, 12.5 μL of 2× streptavidin (SA) donor beads are pipetted into each well, and the wells are incubated with shaking for an additional 30 min at room temperature. The AlphaLisa signal is then measured on an Enspire plate reader with 680 and 615 nm as excitation and emission wavelengths, respectively. The dissociation constant (KD) is calculated based on a variable slope, four parameter analysis using GraphPad PRISM software.
17B—IL-18 BP AlphaLISA assay—An IL-18 binding protein AlphaLISA experiment substantially as described in Example 4 was performed on IL-18 polypeptide which can be incorporated into immunocytokine compositions as provided herein to assess ability to bind to IL-18BP.
A general note: Bead proximity is the source of the signal in Alpha formats.
Usually Kd stands for the free concentration of one partner at which half of the binding sites on the other are occupied at equilibrium, for simple one-to-one binding. The molecule B2 returned a Kd greater than 2800 nM.

B3 came in with a Kd greater than 2800 nM. On the same count and under the same terms, the value for B4 was greater than 2800 nM; that for B5 was greater than 2800 nM. B6 yielded a Kd greater than 2800 nM. The same measure, in the same setting: the value for B7 was greater than 2800 nM. Same read-out and setting: the result for B8 reads greater than 2800 nM. Still for that read-out and setting: the value for B9 was greater than 2800 nM; that for B10 was greater than 2800 nM.
